Laboratory results: US20180111972A1

Key:
[1] = target: human PDGFR on BJ-5ta human fibroblasts (human) (UniProt P09619); assay: flow cytometry on BJ-5ta cells, soluble ligand titrated 5 h at 4 C, anti-FLAG-PE
[2] = target: mouse PDGFR on NIH/3T3 mouse fibroblasts (mouse) (UniProt P05622); assay: flow cytometry on NIH/3T3 cells, soluble ligand titrated 5 h at 4 C, anti-FLAG-PE
[3] = target: human PDGFR on BJ-5ta human fibroblasts (human) (UniProt P09619); assay: flow cytometry titration of the soluble FLAG-tagged protein on BJ-5ta cells, anti-FLAG detection
[4] = target: mouse PDGFR on NIH/3T3 mouse fibroblasts (mouse) (UniProt P05622); assay: flow cytometry on cells, soluble ligand titrated, anti-FLAG-PE
[5] = target: human PDGFR on BJ-5ta human fibroblasts (human) (UniProt P09619); assay: as above

scPDGF, single-chain version of wild-type PDGF-BB, soluble, FLAG and hexahistidine tags (ligand), sequence (chain, part): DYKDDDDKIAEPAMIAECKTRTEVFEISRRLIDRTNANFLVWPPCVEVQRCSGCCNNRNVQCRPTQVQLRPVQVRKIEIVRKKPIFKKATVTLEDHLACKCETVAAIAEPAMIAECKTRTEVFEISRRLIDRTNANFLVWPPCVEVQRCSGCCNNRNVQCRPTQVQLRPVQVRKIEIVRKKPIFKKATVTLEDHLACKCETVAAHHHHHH

## scPDGF, single-chain version of wild-type PDGF-BB, soluble, FLAG and hexahistidine tags (ligand)
[1]
  Kd: 1.5 pM
[2]
  Kd: 2.7 pM
[3]
  EC50 (read off the curve): 1 pM
[4]
  Kd: 2.5 pM
[5]
  Kd: 1.5 pM
